# US11872307B2, “Liquisoft capsules” (PATHEON SOFTGELS INC., priority 2015, dated 2024)
# Assay: Appearance / precipitation of matrix fill
# Assay type: physicochemical
# Settings: dextromethorphan hydrobromide 30 mg, menthol 5 mg
# Protocol: Formulas 14, 15, and 16 were the initial matrix prototypes for dextromethorphan hydrobromide (30 mg) and menthol (5 mg). Three different taste-masking agents were tested: mannitol, thaumatin (Talin®) and glycyrrhizic acid salts (MagnaSweet®).
# Thaumatin and glycyrrhizic acid salts were employed with the lower active pharmaceutical ingredient dose, individually and as a combination. […] Thus, the glycyrrhizic acid salts were not further assessed for chemical stability. Thus, Formula 19 was formulated using thaumatin and used for excipient compatibility studies.
substance,measurement,value
Thaumatin,appearance of matrix fill,hazy appearance
